Here are results for seven molecules from patent US20070293425A1 (JULIUS MAXIMILIANS UNIVERSITAT WURZBURG, published 2007).

In assay [1] the target is BRIA receptor on C2C12 and ATDC5 cells. The assay can be described thus: cell-based or functional assay.
Assay [2] deals with T1, Gremlin.
T1 construct: Bought (R&D systems)
Description: BIAcore, immobilised Gremlin, BMP-2 as analyte. The procedure:
(§1) Proteins were biotinylated and immobilised to streptavidin-coated sensor chip CM5 (Kirsch et al., 2000a). The extracellular domain of BRIA, BRIB and ARII were prepared as described (Kirsch et al., 2000a). […] Interaction with analyte was measured on a BIAcore 2000 system (Kirsch et al., 2000a). Evaluation of sensorgrams (Biaevaluation software 2.0) yielded kinetic constants for complex formation (kₒₙ) and dissociation (koff). […] Apparent dissociation constants KD were either calculated as KD=koff/kₒₙ or by evaluating dose dependency of equilibrium binding.
(Surface plasmon resonance follows binding to a sensor surface in real time, without labels.)

Assay [3] addresses T2, Chordin CR1.
T2 construct: domain: CR1; also called Chordin domain CR1
The assay can be described thus: BIAcore, immobilised Chordin CR1, BMP-2 as analyte. The procedure:
as §1

In assay [4] the target is T3, Chordin CR3.
T3 construct: domain: CR3; also called Chordin domain CR3
Description: BIAcore, immobilised Chordin CR3, BMP-2 as analyte. The procedure:
as §1

Assay [5] has as its target T4, Activin receptor II ectodomain.
T4 construct: extracellular domain; Biotinylated, immobilised on a streptavidin chip; also called ARII; type II receptor ARII
Description: BIAcore, immobilised ARII ectodomain, BMP-2 as analyte. The procedure: as §1

Assay [6] has as its target T5, BRIBEC, extracellular domain of BMPR-IB.
T5 construct: extracellular domain; Biotinylated, immobilised on a streptavidin chip; also called BRIB receptor
Description: BIAcore, immobilised BRIB ectodomain, BMP-2 as analyte. The procedure:
as §1

Assay [7] addresses T4, Activin receptor II ectodomain. Description: BIAcore, immobilised ARII ectodomain, mutein as analyte, against BMP-2 wild type. The protocol: as §1
Assay [8] concerns the target T5, BRIBEC, extracellular domain of BMPR-IB. Description: BIAcore, immobilised BRIB ectodomain, mutein as analyte, against BMP-2 wild type. The protocol: as §1
The target in assay [9] is T6, Noggin/Fc.
T6 construct: Bought (R&D systems); construct not described; also called Noggin-Fc fusion protein
T6 sequence (Q13253 whole entry, species assumed, looked up): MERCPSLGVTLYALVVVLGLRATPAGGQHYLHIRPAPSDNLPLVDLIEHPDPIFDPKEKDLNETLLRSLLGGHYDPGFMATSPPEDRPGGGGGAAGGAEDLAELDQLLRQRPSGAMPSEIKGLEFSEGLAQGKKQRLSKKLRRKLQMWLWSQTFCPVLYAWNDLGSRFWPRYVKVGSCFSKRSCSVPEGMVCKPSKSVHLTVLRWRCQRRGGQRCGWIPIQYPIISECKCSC
The assay can be described thus: BIAcore, immobilised Noggin. The procedure:
as §1

The target of assay [10] is T6, Noggin/Fc. Description: BIAcore, immobilised Noggin, mutein as analyte, against BMP-2 wild type. The protocol:
as §1

Assay [11] concerns the target T1, Gremlin. The assay can be described thus: BIAcore, immobilised Gremlin, mutein as analyte, against BMP-2 wild type. The procedure:
as §1

Assay [12] deals with T2, Chordin CR1. The assay can be described thus: BIAcore, immobilised Chordin CR1, mutein as analyte, against BMP-2 wild type. The procedure:
as §1

The target in assay [13] is T3, Chordin CR3. Description: BIAcore, immobilised Chordin CR3, mutein as analyte, against BMP-2 wild type. The protocol: as §1

T4 sequence (P27037 20-135): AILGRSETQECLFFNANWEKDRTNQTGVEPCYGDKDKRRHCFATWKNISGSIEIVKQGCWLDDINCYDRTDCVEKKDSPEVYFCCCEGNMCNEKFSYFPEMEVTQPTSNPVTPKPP
T5 sequence (P36898 14-126): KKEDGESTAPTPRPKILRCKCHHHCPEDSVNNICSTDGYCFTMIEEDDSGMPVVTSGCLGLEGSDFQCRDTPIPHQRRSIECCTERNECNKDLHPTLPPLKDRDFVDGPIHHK
T1 sequence (O70326 25-184): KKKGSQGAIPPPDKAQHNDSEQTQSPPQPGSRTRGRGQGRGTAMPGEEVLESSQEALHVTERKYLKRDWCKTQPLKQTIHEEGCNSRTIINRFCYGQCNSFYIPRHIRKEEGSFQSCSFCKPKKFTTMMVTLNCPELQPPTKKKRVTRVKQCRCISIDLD

B1: BMP-2 wild type (ligand)
chain: QAKHKQRKRLKSSCKRHPLYVDFSDVGWNDWIVAPPGYHAFYCHGECPFPLADHLNSTNHAIVQTLVNSVNSKIPKACCVPTELSAISMLYLDENEKVVLKNYQDMVVEGCGCR
notes: also called hBMP-2; human BMP-2
Broadly, the Kd is the constant that tells how readily two partners part at equilibrium. Consider B1, for which, in assay [1], the “ED50 of induction of alkaline phosphatase (ALP) activity in ATDC5 cells” value (from here on “ED50 of induction … in ATDC5 cells”) is 8 nM. Also, in [1], the “ED50 of induction of alkaline phosphatase (ALP) activity in C2C12 cells” value (“ED50 of induction … in C2C12 cells” for short) was 25 nM. Also, the Kd in the assay with Gremlin [2] amounted to 22 nM; in the assay with Chordin CR1 [3] it was 61 nM; with Chordin CR3 [4] it was 67 nM; in assay [5], 14 nM; in assay [6], 3.6 nM.

B2: BMP-2 Y103A (ligand)
chain: QAKHKQRKRLKSSCKRHPLYVDFSDVGWNDWIVAPPGYHAFYCHGECPFPLADHLNSTNHAIVQTLVNSVNSKIPKACCVPTELSAISMLYLDENEKVVLKNAQDMVVEGCGCR
With B2, the results for the “KD(Mut)/KD(WT)” value in [7] and in assay [8] were 1.4 ratio and 3.2 ratio, respectively.

B3: BMP-2 W28F (ligand)
chain: QAKHKQRKRLKSSCKRHPLYVDFSDVGFNDWIVAPPGYHAFYCHGECPFPLADHLNSTNHAIVQTLVNSVNSKIPKACCVPTELSAISMLYLDENEKVVLKNYQDMVVEGCGCR
notes: also called W28F mutein
Take B3: the “KD(Mut)/KD(WT)” value in [7] turned out to be 1.2 ratio; in [8], 1.7 ratio.

B4: BMP-2 D53A (ligand)
chain: QAKHKQRKRLKSSCKRHPLYVDFSDVGWNDWIVAPPGYHAFYCHGECPFPLAAHLNSTNHAIVQTLVNSVNSKIPKACCVPTELSAISMLYLDENEKVVLKNYQDMVVEGCGCR
As to B4, the “KD(Mut)/KD(WT)” value in assay [7] was determined as 1.2 ratio; in assay [8], 0.34 ratio.

B5: BMP-2 L51P (ligand)
chain: QAKHKQRKRLKSSCKRHPLYVDFSDVGWNDWIVAPPGYHAFYCHGECPFPPADHLNSTNHAIVQTLVNSVNSKIPKACCVPTELSAISMLYLDENEKVVLKNYQDMVVEGCGCR
notes: also called L51P mutein; BMP-2 proline mutein L51P
Consider B5, for which the “ED50 of induction … in ATDC5 cells” value in assay [1] is above 1500 nM. For the same molecule, in assay [1], the “ED50 of induction … in C2C12 cells” value was above 1600 nM. Also, the Kd in the assay with Noggin/Fc [9] is 0.5 nM. In addition, the “KD(mut)/KD(WT)” value in the assay with Noggin/Fc [10] was found to be 0.27 ratio; in the assay with Gremlin [11], 0.55 ratio; in the assay with Chordin CR1 [12], 0.85 ratio; with Chordin CR3 [13], 0.9 ratio. For the same molecule, in [7], the “KD(Mut)/KD(WT)” value turned out to be 2.3 ratio.

B6: BMP-2 D53P (ligand)
chain: QAKHKQRKRLKSSCKRHPLYVDFSDVGWNDWIVAPPGYHAFYCHGECPFPLAPHLNSTNHAIVQTLVNSVNSKIPKACCVPTELSAISMLYLDENEKVVLKNYQDMVVEGCGCR
notes: also called BMP-2 proline mutein D53P
Consider B6, for which the “ED50 of induction … in ATDC5 cells” value in assay [1] is 140 nM. In assay [1], the “ED50 of induction … in C2C12 cells” value turned out to be 330 nM. This molecule had a Kd in the assay with Noggin/Fc [9] of 2.5 nM. Further, the “KD(mut)/KD(WT)” value worked out at 1.3 ratio in the assay with Noggin/Fc [10], 0.7 ratio with Gremlin [11], 0.7 ratio with Chordin CR1 [12] and 1.1 ratio with Chordin CR3 [13]. In addition, the figures for the “KD(Mut)/KD(WT)” value in assay [7] and in assay [8] were 1.2 ratio and 10 ratio, respectively.

B7: BMP-2 S69R (ligand)
chain: QAKHKQRKRLKSSCKRHPLYVDFSDVGWNDWIVAPPGYHAFYCHGECPFPLADHLNSTNHAIVQTLVNRVNSKIPKACCVPTELSAISMLYLDENEKVVLKNYQDMVVEGCGCR
notes: also called S69R mutein
Regarding B7, the “KD(Mut)/KD(WT)” value in assay [7] was 0.9 ratio.
